Results published in US10532083B2, “Methods for inducing differentiation or conversion of white adipocytes and/or preadipocytes to brown adipocites using FGF8” (Technische Universität München, priority 2014, dated 2020).

What was measured:
[1] = system: visceral, epididymal white adipocytes; assay: Ucp1 / brown adipocyte marker mRNA (qPCR) in immortalized epididymal white adipocytes treated with FGFs; format: cell-based, murine
[2] = system: subcutaneous, inguinal white adipocytes; assay: Ucp1 / brown adipocyte marker mRNA (qPCR) in immortalized inguinal white adipocytes treated with FGFs; format: cell-based, murine
Protocol: (§1) Screening paracrine FGFs for a browning potential. A, B—Screening of all paracrine FGFs in immortalized white adipocytes. Subcutaneous, inguinal and visceral, epididymal white adipocytes were grown to confluence in Dulbecco's modified Eagle's medium with 4.5 g/l glucose, supplemented with 20 nmol/l insulin, 1 nmol/l triiodothyronine, 20% fetal bovine serum, and penicillin/streptomycin. Upon reaching confluence, differentiation was induced with 500 mmol/l isobutylmethylxanthine, 250 mmol/l indomethacine, and 2 mg/ml dexamethasone for 24 hours. Subsequently, members of the paracrine FGF protein family were added to the medium for the following six days. The medium and the FGF indicated were changed every 48 hours. Untreated cells served as a negative control. At the end of the differentiation process total RNA was isolated using TRIzol reagents, RNA quality and concentration was measured by photometric analysis, and 5 μg of total RNA was reverse-transcribed to cDNA. Finally, quantitative analysis of UCP-1 mRNA expression was performed. A bar graph analysis including the SEM of 3 to 6 independent experiments is shown. […] B—Four different splicing forms of the Fgf8 gene were compared by quantifying Ucp1 mRNA expression in fully differentiated white adipocytes. UCP-1 mRNA abundance is shown in percent of the FGF8b value. Fgf8b and Fgf8f were able to increase expression in epididymal adipocytes. C—Illustration depicting the different exon usage that characterizes the FGF8 spliceforms a, b, e, and f.
(§2) Dose dependency of Ffg8b action. A, B—Subcutaneous, inguinal and visceral, epididymal white adipocytes were grown to confluence in Dulbecco's modified Eagle's medium with 4.5 g/l glucose, supplemented with 20 nmol/l insulin, 1 nmol/l triiodothyronine, 20% fetal bovine serum, and penicillin/streptomycin. Upon reaching confluence, differentiation was induced with 500 mmol/l isobutylmethylxanthine, 250 mmol/l indomethacine, and 2 mg/ml dexamethasone for 24 hours. Subsequently, FGF8b in five indicated concentrations were added to the medium for the following six days. The medium and the FGF8b were changed every 48 hours. Untreated cells served as a negative control. At the end of the differentiation process total RNA was isolated using TRIzol reagents, RNA quality and concentration was measured by photometric analysis, and 5 μg of total RNA was reverse-transcribed to cDNA. Finally, quantitative analysis of UCP-1 mRNA expression was performed. FGF8b induces Ucp1 mRNA abundance in inguinal and epididymal adipocytes. Epididymal fat cells were more dose dependently responsive to Fgf8b treatment as compared to inguinal cells. The latter were responsive to FGF8b treatment above the threshold indicated. B—The absolute increase of several genes typical for brown fat cells.
(§3) Treatment timecourse experiment. A, B—Subcutaneous, inguinal and visceral, epididymal white adipocytes were grown to confluence (prolif. denotes proliferation period) in Dulbecco's modified Eagle's medium with 4.5 g/l glucose, supplemented with 20 nmol/l insulin, 1 nmol/l triiodothyronine, 20% fetal bovine serum, and penicillin/streptomycin. Upon reaching confluence, differentiation was induced with 500 mmol/l isobutylmethylxanthine, 250 mmol/l indomethacine, and 2 mg/ml dexamethasone for 24 hours (induction). Subsequently, the cells were cultured for another six days (differentiation). At the end of the differentiation process total RNA was isolated using TRIzol reagents, RNA quality and concentration was measured by photometric analysis, and 5 μg of total RNA was reverse-transcribed to cDNA. Finally, quantitative analysis of UCP-1 mRNA expression was performed. Untreated cells served as a negative control. A bar graph analysis including the SEM of 5 independent experiments is shown. A—Epididymal fat cells were treated with FGF8b during different time windows as given by black squares indicating one day of treatment each. […]

[3] = system: visceral, epididymal white adipocytes; assay: Ucp1 / brown adipocyte marker mRNA (qPCR) in immortalized epididymal white adipocytes treated with FGFs; format: cell-based, murine; settings: for Induction of Ucp1 mRNA expression (browning potential), screening of paracrine FGFs and FGF8 spliceforms: epididymal adipocytes, six days of differentiation, FGF8a, b, e, f 25.0 ng/ml, FGF17 10.0 ng/ml
Protocol: as §1, §2, §3

inguinal adipose tissue = assay: FGF8b releasing pellet implanted into inguinal (subcutaneous) adipose tissue in vivo; set-up: species or system 129Sv/ev mice; settings: FGF8b pellets implanted into inguinal adipose tissue
Protocol: Pellets 1.5 mm in diameter were fabricated from a biodegradable matrix to locally release 100 ng FGF8b per day for 21 days (Innovative Research of America, Sarasota, Fla., USA). […] To implant a pellet into the subcutaneous adipose tissue, a mouse of the 129Sv/ev strain was anesthetized, abdominal fur removed and the pellet pushed into the depot through a short cut in the skin. To target the visceral adipose tissue, the pellet was introduced through a small cut each into skin and abdominal wall and placed between lobes of epididymal adipose tissue. Mice were kept in a specific pathogen free barrier facility at room temperature in a 12:12 hour light:dark cycle with free access to food and water. Three weeks after implantation mice were killed by carbon dioxide exposure and dissected. Blood parameters were analyzed with an automated clinical chemistry analyzer (Piccolo xpress system, Abaxis, Darmstadt, Germany). All animal experiments were performed according to the German animal welfare law (permission no. 55.2-1-54-2532-174-11). By visual inspection, the implantation site of FGF8b pellets and the surrounding adipose tissue was of a brown colour, while both the non-implanted contralateral depot and the implantation site of placebo pellets remained characteristically white (FIG. 6A). […]

[4] = continuous treatment during differentiation, fully differentiated cells (FIG. 2B)
[5] = epididymal cells treated 48 hours during proliferation prior to induction
[6] = epididymal cells treated 48 hours during proliferation prior to induction, sampled acute to d6 p.i.

B1: FGF8b: murine recombinant paracrine fibroblast growth factor 8, major spliceform b (R&D Systems); amino acid sequence identical to human, SEQ ID NO:16/20 (protein)
chain: MGSPRSALSCLLLHLLVLCLQAQVTVQSSPNFTQHVREQSLVTDQLSRRLIRTYQLYSRTSGKHVQVLANKRINAMAEDGDPFAKLIVETDTFGSRVRVRGAETGLYICMNKKGKLIAKSNGKGKDCVFTEIVLENNYTALQNAKYEGWYMAFTRKGRPRKGSKTRQHQREVHFMKRLPRGHHTTEQSLRFEFLNYPPFTRSLRGSQRTWAPEPR
modifications: human FGF8b
- Cox7a1 mRNA [1, 4]: not or only slightly increased
- Elovl3 mRNA [1, 4]: not or only slightly increased
- Cidea mRNA abundance ([1]; epididymal adipocytes, treatment during differentiation, greater effect size than in inguinal): increased
- Cox7a1 mRNA abundance in mature adipocytes [1, 5]: increased
- Foxc2 mRNA abundance, acute response [1, 5]: do not acutely respond
- Prdm16 mRNA abundance, timecourse [1, 5]: transient increase in abundance directly following induction
- pRb mRNA abundance, acute response [1, 5]: do not acutely respond
- Cidea mRNA abundance, timecourse [1, 6]: already increasing on day 4 p.i.
- Elovl3 mRNA abundance, timecourse [1, 6]: already increasing on day 4 p.i.
- Ucp1 mRNA abundance, timecourse ([1]; epididymal cells treated 48 hours during proliferation prior to induction, sampled acute, d1, d2, d4, d6 p.i., normalized to untreated): increased 6 days after induction for the first time
- Pgc1a mRNA abundance after complete differentiation ([1]; epididymal cells treated 48 hours during proliferation, day 6 p.i.): increased Pgc1a mRNA abundance
- Pgc1a mRNA abundance, acute ([1]; epididymal cells treated 48 hours during proliferation, sample immediately after treatment): acutely downregulated
- Final Ucp1 mRNA abundance after full differentiation (responsiveness) ([1]; epididymal cells, comparably late treatment (fully differentiated state)): respond
- Final Ucp1 mRNA abundance after full differentiation ([1]; epididymal cells, treatment during the entire differentiation period): strongest Ucp1 induction
- Ucp1 mRNA abundance, induction ([2]; fully differentiated inguinal cell line, treatment after induction for entire differentiation period of 6 days, screening concentration 25.0 ng/ml, untreated cells as control): 2.1 fold
- Induction of Ucp1 mRNA expression (browning potential), screening of paracrine FGFs and FGF8 spliceforms ([2]; inguinal adipocytes, six days of differentiation, FGF8a, b, e, f 25.0 ng/ml, FGF17 10.0 ng/ml): only isoform with browning potential
- Cidea mRNA abundance ([2]; inguinal adipocytes, treatment during differentiation, smaller effect size than in epididymal): increased
- Ucp1 mRNA abundance, dose dependency ([2]; inguinal cells, different concentrations during entire differentiation phase of 6 days): only the highest dose increased Ucp1 expression
- Most effective concentration for Ucp1 induction ([2]; inguinal cells, highest concentration tested, 6 days of differentiation): 125 ng/mL
- Final Ucp1 mRNA abundance after full differentiation (responsiveness) ([2]; inguinal cells, treatment during different days of proliferation, induction and/or differentiation): only responsive to FGF8b treatment in their fully differentiated state
- Pgc1a mRNA ([3]; continuous treatment during differentiation, fully differentiated adipocytes (FIG. 2B)): strongly downregulated
- Induction of Ucp1 mRNA expression (browning potential), screening of paracrine FGFs and FGF8 spliceforms [3]: increased expression of Ucp1 mRNA expression
- Induction of Ucp1 mRNA expression (browning potential), screening of paracrine FGFs and FGF8 spliceforms ([3]; listed as Fgf8b): effective
- Ucp1 mRNA abundance, dose dependency ([3]; epididymal cells, different concentrations during entire differentiation phase of 6 days): dose dependent manner
- Most effective concentration for Ucp1 induction ([3]; epididymal cells, highest concentration tested, 6 days of differentiation): 125 ng/mL
- Final Ucp1 mRNA abundance after full differentiation ([3]; epididymal cells, treatment during the induction period): inhibited Ucp1 induction
- Ucp1 mRNA abundance, induction ([3]; fully differentiated epididymal cell line, treatment after induction for entire differentiation period of 6 days, screening concentration 25.0 ng/ml, untreated cells as control): 27.4 fold
- Visual browning and expression of brown adipocyte marker genes (inguinal adipose tissue): did not lead to visual browning or increased expression of brown adipocyte marker genes
